We go through two proteins from publication PMC7376121, “In-Lipid Structure of Pressure-Sensitive Domains Hints Mechanosensitive Channel Functional Diversity” (Biophysical Journal, 2020).

The data set deals with the molecule itself. Kind of data set: PELDOR/DEER; spin-labelled single-cysteine channel in DDM detergent solution (50 mM sodium phosphate pH 7.5, 300 mM NaCl, 0.05% DDM), diluted 1:1 with deuterated ethylene glycol, flash frozen; Q band, 50 K; distances between the labels of the subunits of one channel.

B1: Escherichia coli MscL F93C, MTSSL spin-labelled (EcMscL F93R1) (natural protein, UniProt P0A742 1-136, looked up)
chain: MSIIKEFREFAMRGNVVDLAVGVIIGAAFGKIVSSLVADIIMPPLGLLIGGIDFKQFAVTLRDAQGDIPAVVMHYGVFIQNVFDFLIVAFAICMAIKLINKLNRKKEEPAAAPAPTKEEVLLTEIRDLLKEQNNRS
modifications: MTSSL spin label on the cysteine at 93 (R1)
notes: Mechanosensitive channel of large conductance (MscL), Escherichia coli; cysteine mutant on vector pET-52b; R1 denotes the spin-labelled cysteine; also called EcF93R1; source: E. coli BL21 (DE3), purified (Ni-NTA, SEC) in DDM, MTSSL spin-labelled; also reconstituted in MSP1D1 DMPC nanodisks
Take B1: the “stoichiometry N” value came out at 5.

B2: Escherichia coli MscL M94C, MTSSL spin-labelled (EcMscL M94R1) (natural protein, UniProt P0A742 1-136, looked up)
chain: MSIIKEFREFAMRGNVVDLAVGVIIGAAFGKIVSSLVADIIMPPLGLLIGGIDFKQFAVTLRDAQGDIPAVVMHYGVFIQNVFDFLIVAFAIFCAIKLINKLNRKKEEPAAAPAPTKEEVLLTEIRDLLKEQNNRS
modifications: MTSSL spin label on the cysteine at 94 (R1)
notes: Mechanosensitive channel of large conductance (MscL), Escherichia coli; cysteine mutant on vector pET-52b; R1 denotes the spin-labelled cysteine; possibly a pentamer in DDM; also called EcM94R1; EcM94C; source: E. coli BL21 (DE3), purified (Ni-NTA, SEC) in DDM, MTSSL spin-labelled; also reconstituted in MSP1D1 DMPC nanodisks
Consider B2, for which the binding result is on record as “binds”.
